# Measured values published in the DeepSol protein solubility set.
# Test: soluble on expression in E. coli; label from the status in PepcDB or PDB records
row,Sequence,soluble on expression in E. coli
1,GAMGMKVDVGPDPSLVYRPDVDPEMAKSKDSFRNYTSGPLLDRVFTTYKLMHTHQTVDFVSRKRIQYGSFSYKKMTIMEAVGMLDDLVDESDPDVDFPNSFHAFQTAEGIRKAHPDKDWFHLVGLLHDLGKIMALWGEPQWAVVGDTFPVGCRPQASVVFCDSTFQDNPDLQDPRYSTELGMYQPHCGLENVLMSWGHDEYLYQMMKFNKFSLPSEAFYMIRFHSFYPWHTGGDYRQLCSQQDLDMLPWVQEFNKFDLYTKCPDLPDVESLRPYYQGLIDKYCPGTLSW,soluble
2,MKIISAEQVHQNLNFEELIPLLKQSFSRPFSMPQRQVYSLAPEQSENHDAFALLPSWNEEVIGNKAFTYFPDNAKKHDLPGLFSKIMLFKRQTGEPLALVDGTSVTYWRTAAISALASQLLSRKNSQHLMLFGTGNLASYLVKAHLTVRDIKQVTLWGRNAKKVSKLIADFSILYPAVTFKTSVDVNAEVASADIICCATGAKTPLFDGNSVSAGCHIDCLGNHMTDARECDTTTILRARVFVDSLTNTLNEAGELLIPMAEDAFNKDEIVGELADMCKTPSMLRQSSDEITLFKSVGTAISDLVAAHSVVEKLAD,not soluble
3,MAKDIEISASESKFILEALRQNYRLDGRSFDQFRDVEITFGKEFGDVSVKMGNTKVHCRISCQIAQPYEDRPFEGLFVISTEISPMAGSQFENGNITGEDEVLCSRIIEKSVRRSGALDVEGLCIVAGSKCWAVRADVHFLDCDGGFIDASCIAVMAGLMHFKKPDITVHGEQIIVHPVNEREPVPLGILHIPICVTFSFFNPQDTEENIKGETNSEISIIDATLKEELLRDGVLTVTLNKNREVVQVSKAGGLPMDALTLMKCCHEAYSIIEKITDQILQLLKEDSEKRNKYAAMLTSENAREI,soluble
4,MTSRMQPKSGVYSVSKADFTKIFEDVPKVPITSAVDLRNKFDAVRIILSNSSEDWNKRQTQLKTVRSLVIHGEKVVDRPTMIAHLVQLLGCFELAVKDLRSQVLREAAITCSFIVSKYGIETHSIGEDILVPAMSQVAVSTKIMATSASTLTEFIVEYVQTRQVFTILSSFSTSKDKSQRRQLAALLEIVISKWSDRIKKQIMRQICELIKSAINDADSETRAAGRRAFAKLDEMHSEEADALYLELDHSKQKMLRGGDAASSWASVNSEKGSIPIRSKLSAGSKAHMNISAISEKKEGIKKLLPIVADTSLNPIEIKNIGNCLNRLLSDASNTMVLEIYSIFVRTHSSRLSEWLRLALAKLFARKAAETLPNTKKQIGHTLNVILECFNAHHQLVTVCELMCDPIHLMVPKARVVLLEYLTSLLDEYTEPGASINAKELKTAIRKMLTWASDPRLSILLTPHVEKAICSMFCVNVADFSALISDLDSEQKNWIHQTLQRNGLENGISSNNIATNSGATASRETSNTSFQKESTSFGLPEFGARKGGTGVNLGSLNISNNLALSRLEEQSTSRLMEKVNLNSTVTLPPDTLEKIQNVQDLLQKMRSSENADEQESAISSIYMMICDGGFGVWEQCYAKLLLNLFEILSKSRSENNKKMCLRILGKMCTAQAAKLFDSTEMAVCKVLDAAVNTNDATTALAVEDCLRTLATHLPLSNIINIAKVILNQEPIDDERASLVLKMVTRLFEELPAEELNNIVDDITPTIIKAYQSTSSTVRKTVVYCLVAMVNRVGEQRMTPHFTKLPKAMTNLIQVYVNRAISTSLPRL,not soluble
5,SHMAGHQIVHVRGDSETDLEALFNAVMNPKTANVPQTVPMRLRKLPDSFFKPPEPKSHSRQASTDAGTAGALTPQHVRAHSSPASLQLGAVSPGTLTPTGVVSGPAATPTAQHLRQSSFEIPDDV,soluble
6,MGSDKIHHHHHHMTAEVAIINRSGIALAADSAVTIGRDRVWKNSNKLFHLAPSNDVAVMVFGSGDYCGLPWEVVIKEFRKSLGKTTYSRVEEYVGRFLGFLDDLVVPPTPLADLTGWYIILNAISQTQKAMTASGSLKRRQQLIAAISEKIEEADHYPLLFDGYSRDQYRKKHSQKIKEFMAEELGMHVTQTMHSKMITLCYERSRRAFETKFETGVVFAGYGDSELLPVVIEMCVDGELEGKVRAWQVRENNMNEGGTSGAILPFAQADVANLFVEGTLPQYLSYTRQTLLQTLDLKTAELVKDYVPEPDRVVEMERQKKANRAMVKQFSTDFKQYRHDESVANLLKVVNSLPKEEMAAMAEALVEITSLRRKMDSSLETVGGPVDVAIISKSDGFVWTKRKHYFDVEFNRDFMERRNQRYQGNQDA,not soluble
7,NVSVLNFGNTPVSFRQDGFLNATAIASHFGKLPKDYLKSEQTQQYISALAENLSVRRKILTEANQIVIVKRGGSEQGTWLHPKLAIHFARWLNPKFAVWCDEQIEILLNGKISDGI,soluble
8,MSLENICDMNNKVKVAVLDTGIDKEHDYLKDNLVGGIAFECMHDYIFISDKFDDEDGHGTACASIIKKEYEDVELFVIKILRKDGITNIKVLEEALRYLLDTNIRLINLSLSVIGVESVKGLFEVCYELFRKGKIIVCSLANDFDLSYPAMFNNVIGVRGFTLDGDDSFWYNKKYDVQCVMDSNSYISCDINNSYRLPPKCNSYLSAKLTGKIAKILSEKPGITISDLNDKLESLATRNHWDSCDFDECSRIVNFKLDLYDKENALFEGHHHHHH,soluble
9,IPELKDHLRIFRPRKLTLKGYRQHWVVFKETTLSYYKSQDEAPGDPIQQLNLKGCEVVPDVNVSGQKFCIKLLVPSPEGMSEIYLRCQDEQQYARWMAGCRLASKGRTMADSSYTSEVQAILAFLSLQRT,soluble
10,MNEIKTSCASTDRKWSTWESIDWNKCVIAVNKLQARIVKAQKAGKHGRVKSLQWVLTHSFYAKALAVKRVTSNSGSDTAGVDKVKWSTPNARFKAIGELKRRGYKPQPLKRVNIKKSNGKLRPLGIPTMKDRAMQALYLLALEPVSETTADSNSYGFRKERSTGDAREQCFCVLAKKASPEWIMEGDIQGCFDHISHEWLLNNIPMDKVMLRKWLKCGFVFNKELFPTEEGTPQGGIISPTLANMTLDGLQTMLAEKYHKKFVTRKTTTYYPKVHLVRYADDFIITGRNKEALEEIKPLVVDFLKERGLTLSEEKTKITHIDDGFDFLGYNIRKYKGVLLIKPSQKSLKKFMQKIRGIIDSNKGSKQESLIRLLNPVITGWVNYYKNCVASDTFRKADYLIFEKLWQWATRRHPKKGKYWIADRYFTRVKNRNWCFVANFKKGKTDDRIALKRLYDTKITRYVKVKGEANPFAPEWTEYFEKRKTYKMLQSLNGRKSLLYMWERQNHLCPVCGKPIDKEHPWGTSQQTVNGKKVNNLLHDSCRRKVIQTNKM,not soluble
11,MGSDKIHHHHHHMIGALYVVGPAGTGKSTFSGSLNEWLKRMEFDSAIINLDPGADYLPYEPDFDIREYISLDSIMSDYNLGPNGSQIVAADMIVSYTDKITEFLEDLDDYYVVVDTPGQIELFTFRTSSTEIVEKVSGQRSMMAYIADAPLATYPSGFIAQKMLYASVFSRFFRPMMFVLNKIDLVSDEDIQEVKKWESSPDLLNDAFMEEKGQMEKDYFVGILQAFKESNIMTKIYPVSSRDSFGFEDIYSQMALYFTGGEDNDTYREEG,not soluble
12,MLSKKLHDALNDQMNFEFYSAHAYMAMAAYCTAESYDGFANFFLVQAEEERFHAMKLYNYINDRGERAIITGFDNPNNEYESVLNAFEVALEHEREVTKRIYNLSDIAWDEREHATITFLKWFVDEQVEEEASFDSIIQKLKRITSDSNALFMLDAELEKRTFTPPAE,not soluble
13,MAHHHHHHMGSSSPSSLLPPALMPCHVWEGREEGISVETARGRREVEINRKKGHMASPKEMYEKECRALGVPPNSGLLRMLPESTVNLSGLSVMHLGHNFLGDRGVVPFVHIIAHASSLHTLNLRENGIGNEGVRVLCRGLRRLPALKVLELSGNPFTFLAARQLVYLCEDSPVLSVIGVEGTLMTEKLKTSIIHRIREAVKRREARKQLSQQPSADRDDGQKDMAEGVAEAEGKVVERAAPIAAEEATTLRSRNVGGPCLRKSVLSLVSQDSMSTAMSSKFKKNEPDDQAGPRGANEFASPCSPLPPPPPDDAHQSPLWFDASEDEEQKEEKKEISVATAENDEKMMIDTAGSISFLVDVEELRANSVERELRAQEEMLPWQVSRADDPLRSLHSTHTRIASHRTTEKRSESGTAISFPSSFTLELRTAEAEGKLAECTKSTKGDDFLDLLFGSEVD,not soluble
14,MSLSERIIVTYQVAAAPAEIAARAEALAIEQSVECPLAAVTEQQIRDEIVGRVEAIAPIGETRFSVRVSLASATAPAEPGQLLNMLFGNSSIQPDVTLADVELPPAYPAAFGGPKLGISGLRAKLGAPRRALTGSALKPQGLAPEALAGLAHRLALGGVDLIKDDHGIADQAFSPFAARVPAVARAMREACAVRGAAMLYAPHVSGSLDDMRRQLDIVRREGLSVVMLMPMIVGLANFHLIAKEAEGLIVLAHPSLAGAQRIAPDLLLGKLFRLLGADATIFPHYGGRFAYTPETCRALADAARRDWHDLKPCLPVPAGGIAIDRIKELLAFYGTDVMLLIGGSLLAAGEQLTEHAARFTAEVASHGQEGHHHHHH,soluble
15,MNQQEFQLREITYQDIKDLLAIEREVYAGELPWTMSAFMAELGSKAPHLYLLAAINGKTVGFIGCRIQGTDAHITNVAVHTAYQGLGLGRSLIEETRIFAKKNRCETLSLEVRMSNVKAQRLYRKIGFVSQTVKKGYYDENNEDALEMIIDLKEE,not soluble
16,MFNRIMVPVDGSKGAVKALEKGVGLQQLTGAELYILCVFKHHSLLEASLSMARPEQLDIPDDALKDYATEIAVQAKTRATELGVPADKVRAFVKGGRPSRTIVRFARKRECDLVVIGAQGTNGDKSLLLGSVAQRVAGSAHCPVLVV,soluble
17,MFTHVESFKSAFLEKLETMYGKSFKDSTTRDQYNTLGYMVREYMNSQWIATNESYRSGERKQMYYLSIEFLLGRLLGSNILNLGIRDVCEQGLSELGISLQQLEEVEADAGLGNGGLGRLAACFLDSLASLDLPGHGCGIRYKHGLFDQKIVDGYQVEFPEQWLLHENVWEVRRHDQAVEVSYFGNVEPLYIDGRLEFRHTNAEVIMAVPYDVPVVGYETSTVNTLRLWNAEPVPFPQNCKDILKYKRETEAVSEFLYPDDTHDEGKILRLKQQYFLVSASLQNIVRLHRERYGDLRQLHEKIAIHINDTHPVLAIPELMRILLDEEKLAWEEAWHITTQTISYTNHTTLSEALEKWPIHIFKPLLPRIYMIIEEINERFCHELWERYPYEWHRIEEMAIIAHDLVKMAHLAIVGSHSVNGVAKIHTEILKQREMRLFYEFYPDKFNNKTNGIAHRRWLMKANPQLTNLISEAIGTEWKKEPIKLQELQLVQYDASFQEKFAEVKQERKEILAERIHNTMGITIDPNSIFDVQVKRLHAYKRQLLNVLHILYLYNRLKEDASFTFYPRTFIFGAKASPGYYYAKKIIKLINELARKVNNDPYVSQYMKVIFLENYRVSLAEDIFPAADVSEQISTASKEASGTGNMKFMMNGAITLGTLDGANIEIKDRVGDDNCFIFGLTAEEVLHYYQNGGYRASDYYHHNGHIKKVVDQLTNGFFAQSGAEFEAIYDSLVIQNDEYFVLRDFGPYAERQEAVGRAYENRTKWLEMSILNIAQSGHFASDRTILQYSNEIWGIGNTVTQI,not soluble
18,MGSDKIHHHHHHVTTVTRSFDDAWRRWIAENLLLDAPPSALHGALLGHGFDAADVTREIEAALASPYFHGAARLRNRLRKREWILSVYSELNRMRAASGVIERCERLSRDAFFEQYYFQNRPVIITGAFDFWPACSRWNWDYLRRQCGDCEVEVQFGRESDANYEINQPRLTRMMRFADYVDLVEQRGPTNDFYMTANNTSRNRAALAALWSDVPPIDAYLDAASPDTGFFWMGPAGTKTPFHHDLTNNFMAQVIGRKHIKLVPLSDTPYMANHLHCYSRVDGGAIDFDSFPSMRQAQLIECTLAPGELLFLPVGWWHYVEGIDASVTMTFTNFLRSNDFSRRYDTYHEL,not soluble
19,GSHMAMAYVIRDEWGNQIWICPGCNKPDDGSPMIGCDDCDDWYHWPCVGIMAAPPEEMQWFCPKCANKIKKDKKH,soluble
